Assay results taken from patent US20190282673A1, “STAPHTAME ACTIVITY ON BIOFILMS” (priority 2016, published 2019).

Tests used:
[1] = system: S. haemolyticus stationary phase cells; experiment: P128 activity on stationary phase cells (CFU); assay type: cell-based; conditions: 10 μg/mL P128, 2 h
Description: (§1) Most in vitro studies examining the activity of antibiotics have been performed on rapidly dividing planktonic bacterial cultures supplemented with rich growth media. However, in infections, bacteria seldom encounter optimal conditions that allow logarithmic growth. It is likely that stationary-phase or non dividing bacteria are common in many persistent Staphylococcus infections such as endocarditis and osteomyelitis and in biofilm-associated infections (e.g., on catheters, grafts, and foreign bodies). Therefore, activity of P128 was determined on stationary phase cells of three S. aureus strains, three S. epidermidis, and two each of S. lugdunensis and S. haemolyticus strains. Briefly, the test cultures were grown overnight in LB (˜10^9 cells), centrifuged, pellet was washed and resuspended in saline. Optical density (OD600) was adjusted to 0.2 (˜10^8 CFU/mL). 100 μL of these cells were treated with 10 μg/mL P128 (in saline) and incubated at 37° C. for 2 h, 200 rpm, cell controls without proteins were maintained. Following incubation, the volume was made up to 1 mL with saline, serially log diluted in saline and plated on LB agar. Incubated at 37° C. for 18 h to enumerate residual CFU to determine cell killing.

[2] = system: S. lugdunensis stationary phase cells; experiment: P128 activity on stationary phase cells (CFU); assay type: cell-based; conditions: 10 μg/mL P128, 2 h
Description: as §1

MRSA MW2 = experiment: Rat model of infective endocarditis; assay type: in vivo, Wistar albino rats; conditions: described in present tense, no data
Description: A rat model of infective endocarditis is used. Fernandez, et al. (2012). Synergistic activity of ceftobiprole and vancomycin in a rat model of infective endocarditis caused by methicillin-resistant and glycopeptide-intermediate Staphylococcus aureus. Antimicrob Agents Chemother. 56(3):1476-84. Female Wistar albino rats are operated under ketamine and xylazine anaesthesia Right carotid artery is cannulated and polyethylene catheter is placed near the […]. Two days later, animals are challenged with MRSA MW2 through tail vein. Twenty four hours post-challenge, animals are treated with appropriate doses of P128 (IV bolus or infusion) or standard of care antibiotics (e.g., vancomycin, daptomycin, linezolid, oxacillin, etc.) or both. Animals are euthanized at appropriate time after the last dosing, vegetations are collected and bacterial load is determined.

[3] = system: S. aureus small colony variants and wild type; experiment: CFU drop assay on small colony variants; assay type: cell-based, Staphylococcus aureus
Method: Bacterial cultures were grown in LB medium at 37° C. until OD600 reached 1.0 and then diluted in LB to obtain 10^7 CFU. 100 μL of cells (10^7 CFU) in LB were treated with 100 μL of P128 (in saline) and incubated at 37° C. for 1 h, 200 rpm, cell controls without proteins were maintained. Following incubation, the volume was made up to 1 mL with LB broth, serially log diluted in LB broth and plated on LB agar. Incubated at 37° C. for 16-18 h to enumerate residual CFU and determine cell killing.

[4] = system: S. aureus stationary phase cells; experiment: P128 activity on stationary phase cells (CFU); assay type: cell-based, Staphylococcus aureus; conditions: for CFU/mL, P128 treated: 10 μg/mL P128, 2 h
Description: as §1

S. epidermidis = experiment: P128 MIC in CAMHB and serum; assay type: cell-based, Staphylococcus epidermidis
S. haemolyticus = experiment: P128 MIC in CAMHB and serum; assay type: cell-based
S. lugdunensis = experiment: P128 MIC in CAMHB and serum; assay type: cell-based

B1: P128: anti-staphylococcal chimeric protein: phage tail associated muralytic enzyme (TAME) cell wall-degrading region plus staphylococcus-specific binding region; SEQ ID NO: 1 (protein)
chain: MSLDSLKKYNGKLPKHDPSFVQPGNRHYKYQCTWYAYNRRGQLGIPVPLWGDAADWIGGAKGAGYGVGRTPKQGACVIWQRGVQGGSPQYGHVAFVEKVLDGGKKIFISEHNYATPNGYGTRTIDMSSAIGKNAQFIYDKKLETPNTGWKTNKYGTLYKSESASFTPNTDIITRTTGPFRSMPQSGVLKAGQTIHYDEVMKQDGHVWVGYTGNSGQRIYLPVRTWNKSTNTLGVLWGTIK
modifications: P128 chimera
[1]; S. haemolyticus B9478 stationary phase
  CFU/mL, P128 treated: 1.1 × 10^3 CFU/mL
[1]; S. haemolyticus B9479 stationary phase
  CFU/mL, P128 treated: 6 × 10^2 CFU/mL
[2]; S. lugdunensis B9474 stationary phase
  CFU/mL, P128 treated: 4.9 × 10^2 CFU/mL
[2]; S. lugdunensis B9475 stationary phase
  CFU/mL, P128 treated: 2.7 × 10^4 CFU/mL
MRSA MW2
  CFU reduction in vegetations: Significantly higher CFU reduction
[3]
  Reduction in CFU of SCV strains: more than 4 log
[3]; S. aureus USA 300 (wild type), 1 h
  CFU/mL, P128 treated: 4.5 × 10^2 CFU/mL
[3]; hemB small colony mutant NR48387, 1 h
  CFU/mL, P128 treated: 3.0 × 10^1 CFU/mL
[3]; menD mutant small colony mutant, 1 h
  CFU/mL, P128 treated: 1.2 × 10^3 CFU/mL
[4]; S. aureus B9377 stationary phase
  CFU/mL, P128 treated: 3 × 10^2 CFU/mL
[4]; S. aureus BK18 stationary phase
  CFU/mL, P128 treated: 1 × 10^1 CFU/mL
[4]; S. aureus BK31 stationary phase
  CFU/mL, P128 treated: 3.5 × 10^1 CFU/mL
[4]; S. aureus, S. epidermidis, S. lugdunensis and S. haemolyticus
  Drop in CFU, stationary cells: Three to five log drop in CFU
S. epidermidis; S. epidermidis B9470
  Fold reduction in serum MIC: 32 fold
  MIC of P128 in CAMHB: 4 μg/ml and (0.14) μM
  MIC of P128 in Serum: 0.12 μg/ml and (0.004) μM
S. epidermidis; S. epidermidis B9473
  Fold reduction in serum MIC: 4 fold
  MIC of P128 in CAMHB: 16 μg/ml and (0.58) μM
  MIC of P128 in Serum: 4 μg/ml and (0.14) μM
S. epidermidis; S. epidermidis, fetal calf serum
  24 h P128 MIC for serum time-kill: 0.25 µg/mL
S. haemolyticus; S. haemolyticus B9478
  Fold reduction in serum MIC: 16 fold
  MIC of P128 in CAMHB: 128 μg/ml and (4.64) μM
  MIC of P128 in Serum: 8 μg/ml and (0.29) μM
S. haemolyticus; S. haemolyticus B9511
  Fold reduction in serum MIC: 32 fold
  MIC of P128 in CAMHB: 8 μg/ml and (0.29) μM
  MIC of P128 in Serum: 0.25 μg/ml and (0.008) μM
S. haemolyticus; S. haemolyticus, fetal calf serum
  24 h P128 MIC for serum time-kill: 0.25 µg/mL
S. lugdunensis; S. lugdunensis B9476
  Fold reduction in serum MIC: 8 fold
  MIC of P128 in CAMHB: 4 μg/ml and (0.14) μM
  MIC of P128 in Serum: 0.5 μg/ml and (0.017) μM
S. lugdunensis; S. lugdunensis B9510
  Fold reduction in serum MIC: 32 fold
  MIC of P128 in CAMHB: 16 μg/ml and (0.58) μM
  MIC of P128 in Serum: 0.5 μg/ml and (0.017) μM
S. lugdunensis; S. lugdunensis, fetal calf serum
  24 h P128 MIC for serum time-kill: 0.50 µg/mL
